How the values were obtained:
HeLa Kyoto [1] = assay: solubility in G1/S (NP-40 vs SDS abundance) (log2 ratio); higher = more soluble; details: cell cycle stage: G1/S
HeLa Kyoto [2] = assay: solubility change mitosis vs G1/S (difference of NP-40 vs SDS log2 ratios) (log2 ratio difference); higher = more soluble in mitosis
HeLa Kyoto [3] = assay: thermal stability score vs G1/S (z-score of summed log2 fold changes over temperatures); higher = more thermally stable than in G1/S
HeLa Kyoto [4] = assay: melting temperature (median over replicates), in situ; higher = more thermally stable
[5] = cell cycle stage: early G1 (4.5 h after nocodazole release)
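Throughout, for melting temperature (median over replicates), in situ: HeLa Kyoto cells synchronized by double thymidine or nocodazole block, proteins quantified by TMT10plex mass spectrometry, three independent biological replicates.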
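Throughout, for solubility change mitosis vs G1/S (difference of NP-40 vs SDS log2 ratios): synchronized HeLa Kyoto cells (double thymidine block for G1/S, nocodazole release for mitosis), protein amounts in NP-40 versus SDS lysates quantified by mass spectrometry, three biological replicates.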
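Throughout, for solubility in G1/S (NP-40 vs SDS abundance): HeLa Kyoto cells arrested at G1/S by double thymidine block, proteins quantified by TMT10plex mass spectrometry in mild NP-40 versus SDS extracts, three biological replicates.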
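Throughout, for thermal stability score vs G1/S (z-score of summed log2 fold changes over temperatures): synchronized HeLa Kyoto cells, proteins quantified by TMT10plex mass spectrometry, three biological replicates, mitosis taken 0.5 h after nocodazole release, G1/S directly after double thymidine block.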

| Substance | solubility in G1/S (log2) (HeLa Kyoto [1]) | solubility change mitosis (log2) (HeLa Kyoto [2]) | thermal stability score (HeLa Kyoto [3]; [5]) | thermal stability score (HeLa Kyoto [3]; cell cycle stage: mitosis) | melting temperature (HeLa Kyoto [4]; cell cycle stage: G1/S) [°C] | melting temperature (HeLa Kyoto [4]; cell cycle stage: mitosis) [°C] |
| --- | --- | --- | --- | --- | --- | --- |
| MPRIMIKGGVWRNTEDEILKAAVMKYGKNQWSRIASLLHRKSAKQCKARWYEWLDPSIKKTEWSREEEEKLLHLAKLMPTQWRTIAPIIGRTAAQCLEHYEFLLDKAAQRDNEEETTDDPRKLKPGEIDPNPETKPARPDPIDMDEDELEMLSEARARLANTQGKKAKRKAREKQLEEARRLAALQKRRELRAAGIEIQKKRKRKRGVDYNAEIPFEKKPALGFYDTSEENYQALDADFRKLRQQDLDGELRSEKEGRDRKKDKQHLKRKKESDLPSAILQTSGVSEFTKKRSKLVLPAPQISDAELQEVVKVGQASEIARQTAEESGITNSASSTLLSEYNVTNNSVALRTPRTPASQDRILQEAQNLMALTNVDTPLKGGLNTPLHESDFSGVTPQRQVVQTPNTVLSTPFRTPSNGAEGLTPRSGTTPKPVINSTPGRTPLRDKLNINPEDGMADYSDPSYVKQMERESREHLRLGLLGLPAPKNDFEIVLPENAEKELEEREIDDTYIEDAADVDARKQAIRDAERVKEMKRMHKAVQKDLPRPSEVNETILRPLNVEPPLTDLQKSEELIKKEMITMLHYDLLHHPYEPSGNKKGKTVGFGTNNSEHITYLEHNPYEKFSKEELKKAQDVLVQEMEVVKQGMSHGELSSEAYNQVWEECYSQVLYLPGQSRYTRANLASKKDRIESLEKRLEINRGHMTTEAKRAAKMEKKMKILLGGYQSRAMGLMKQLNDLWDQIEQAHLELRTFEELKKHEDSAIPRRLECLKEDVQRQQEREKELQHRYADLLLEKETLKSKF [CDC5L] | -0.778 | 0.483 | 3.11 | 6.1 | 47.5 | 48.7 |
| KIDINS220 | -0.21 | 0.00102 | -0.795 | -1.61 | 52.9 | 52 |
| MDPSDFPSPFDPLTLPEKPLAGDLPVDMEFGEDLLESQTAPTRGWAPPGPSPSSGALDLLDTPAGLEKDPGVLDGATELLGLGGLLYKAPSPPEVDHGPEGTLAWDAGDQTLEPGPGGQTPEVVPPDPGAGANSCSPEGLLEPLAPDSPITLQSPHIEEEETTSIATARRGSPGQEEELPQGQPQSPNAPPSPSVGETLGDGINSSQTKPGGSSPPAHPSLPGDGLTAKASEKPPERKRSERVRRAEPPKPEVVDSTESIPVSDEDSDAMVDDPNDEDFVPFRPRRSPRMSLRSSVSQRAGRSAVGTKMTCAHCRTPLQKGQTAYQRKGLPQLFCSSSCLTTFSKKPSGKKTCTFCKKEIWNTKDSVVAQTGSGGSFHEFCTSVCLSLYEAQQQRPIPQSGDPADATRCSICQKTGEVLHEVSNGSVVHRLCSDSCFSKFRANKGLKTNCCDQCGAYIYTKTGSPGPELLFHEGQQKRFCNTTCLGAYKKKNTRVYPCVWCKTLCKNFEMLSHVDRNGKTSLFCSLCCTTSYKVKQAGLTGPPRPCSFCRRSLSDPCYYNKVDRTVYQFCSPSCWTKFQRTSPEGGIHLSCHYCHSLFSGKPEVLDWQDQVFQFCCRDCCEDFKRLRGVVSQCEHCRQEKLLHEKLRFSGVEKSFCSEGCVLLYKQDFTKKLGLCCITCTYCSQTCQRGVTEQLDGSTWDFCSEDCKSKYLLWYCKAARCHACKRQGKLLETIHWRGQIRHFCNQQCLLRFYSQQNQPNLDTQSGPESLLNSQSPESKPQTPSQTKVENSNTVRTPEENGNLGKIPVKTRSAPTAPTPPPPPPPATPRKNKAAMCKPLMQNRGVSCKVEMKSKGSQTEEWKPQVIVLPIPVPIFVPVPMHLYCQKVPVPFSMPIPVPVPMFLPTTLESTDKIVETIEELKVKIPSNPLEADILAMAEMIAEAEELDKASSDLCDLVSNQSAEGLLEDCDLFGPARDDVLAMAVKMANVLDEPGQDLEADFPKNPLDINPSVDFLFDCGLVGPEDVSTEQDLPRTMRKGQKRLVLSESCSRDSMSSQPSCTGLNYSYGVNAWKCWVQSKYANGETSKGDELRFGPKPMRIKEDILACSAAELNYGLAQFVREITRPNGERYEPDSIYYLCLGIQQYLLENNRMVNIFTDLYYLTFVQELNKSLSTWQPTLLPNNTVFSRVEEEHLWECKQLGVYSPFVLLNTLMFFNTKFFGLQTAEEHMQLSFTNVVRQSRKCTTPRGTTKVVSIRYYAPVRQRKGRDTGPGKRKREDEAPILEQRENRMNPLRCPVKFYEFYLSKCPESLRTRNDVFYLQPERSCIAESPLWYSVIPMDRSMLESMLNRILAVREIYEELGRPGEEDLD [ZMYM3] | -0.523 | 0.169 | 0.311 | 1.4 | 49.3 | 50.6 |
| MACPALGLEALQPLQPEPPPEPAFSEAQKWIEQVTGRSFGDKDFRTGLENGILLCELLNAIKPGLVKKINRLPTPIAGLDNIILFLRGCKELGLKESQLFDPSDLQDTSNRVTVKSLDYSRKLKNVLVTIYWLGKAANSCTSYSGTTLNLKEFEGLLAQMRKDTDDIESPKRSIRDSGYIDCWDSERSDSLSPPRHGRDDSFDSLDSFGSRSRQTPSPDVVLRGSSDGRGSDSESDLPHRKLPDVKKDDMSARRTSHGEPKSAVPFNQYLPNKSNQTAYVPAPLRKKKAEREEYRKSWSTATSPLGGERPFRYGPRTPVSDDAESTSMFDMRCEEEAAVQPHSRARQEQLQLINNQLREEDDKWQDDLARWKSRRRSVSQDLIKKEEERKKMEKLLAGEDGTSERRKSIKTYREIVQEKERRERELHEAYKNARSQEEAEGILQQYIERFTISEAVLERLEMPKILERSHSTEPNLSSFLNDPNPMKYLRQQSLPPPKFTATVETTIARASVLDTSMSAGSGSPSKTVTPKAVPMLTPKPYSQPKNSQDVLKTFKVDGKVSVNGETVHREEEKERECPTVAPAHSLTKSQMFEGVARVHGSPLELKQDNGSIEINIKKPNSVPQELAATTEKTEPNSQEDKNDGGKSRKGNIELASSEPQHFTTTVTRCSPTVAFVEFPSSPQLKNDVSEEKDQKKPENEMSGKVELVLSQKVVKPKSPEPEATLTFPFLDKMPEANQLHLPNLNSQVDSPSSEKSPVMTPQFKFWAWDPEEERRRQEKWQQEQERLLQERYQKEQDKLKEEWEKAQKEVEEEERRYYEEERKIIEDTVVPFTVSSSSADQLSTSSSMTEGSGTMNKIDLGNCQDEKQDRRWKKSFQGDDSDLLLKTRESDRLEEKGSLTEGALAHSGNPVSKGVHEDHQLDTEAGAPHCGTNPQLAQDPSQNQQTSNPTHSSEDVKPKTLPLDKSINHQIESPSERRKKSPREHFQAGPFSPCSPTPPGQSPNRSISGKKLCSSCGLPLGKGAAMIIETLNLYFHIQCFRCGICKGQLGDAVSGTDVRIRNGLLNCNDCYMRSRSAGQPTTL [LIMCH1] | 0.188 | -0.237 | 4.62 | 6.09 | 51.2 | 52 |
| MDKLKKVLSGQDTEDRSGLSEVVEASSLSWSTRIKGFIACFAIGILCSLLGTVLLWVPRKGLHLFAVFYTFGNIASIGSTIFLMGPVKQLKRMFEPTRLIATIMVLLCFALTLCSAFWWHNKGLALIFCILQSLALTWYSLSFIPFARDAVKKCFAVCLA [SFT2D2] | 0.0285 | 0.0654 | -0.835 | -0.774 | 57.4 | 61.1 |
| VWA8 | -0.224 | -0.0997 | 1.66 | 1.12 | 50.3 | 50.4 |
| MFQFHAGSWESWCCCCLIPADRPWDRGQHWQLEMADTRSVHETRFEAAVKVIQSLPKNGSFQPTNEMMLKFYSFYKQATEGPCKLSRPGFWDPIGRYKWDAWSSLGDMTKEEAMIAYVEEMKKIIETMPMTEKVEELLRVIGPFYEIVEDKKSGRSSDITSVRLEKISKCLEDLGNVLTSTPNAKTVNGKAESSDSGAESEEEEAQEEVKGAEQSDNDKKMMKKSADHKNLEVIVTNGYDKDGFVQDIQNDIHASSSLNGRSTEEVKPIDENLGQTGKSAVCIHQDINDDHVEDVTGIQHLTSDSDSEVYCDSMEQFGQEESLDSFTSNNGPFQYYLGGHSSQPMENSGFREDIQVPPGNGNIGNMQVVAVEGKGEVKHGGEDGRNNSGAPHREKRGGETDEFSNVRRGRGHRMQHLSEGTKGRQVGSGGDGERWGSDRGSRGSLNEQIALVLMRLQEDMQNVLQRLQKLETLTALQAKSSTSTLQTAPQPTSQRPSWWPFEMSPGVLTFAIIWPFIAQWLVYLYYQRRRRKLN [ACBD5] | 0.0763 | -0.129 | 2.16 | 3.53 | 47.3 | 49.4 |
| MARVAWGLLWLLLGSAGAQYEKYSFRGFPPEDLMPLAAAYGHALEQYEGESWRESARYLEAALRLHRLLRDSEAFCHANCSGPAPAAKPDPDGGRADEWACELRLFGRVLERAACLRRCKRTLPAFQVPYPPRQLLRDFQSRLPYQYLHYALFKANRLEKAVAAAYTFLQRNPKHELTAKYLNYYQGMLDVADESLTDLEAQPYEAVFLRAVKLYNSGDFRSSTEDMERALSEYLAVFARCLAGCEGAHEQVDFKDFYPAIADLFAESLQCKVDCEANLTPNVGGYFVDKFVATMYHYLQFAYYKLNDVRQAARSAASYMLFDPKDSVMQQNLVYYRFHRARWGLEEEDFQPREEAMLYHNQTAELRELLEFTHMYLQSDDEMELEETEPPLEPEDALSDAEFEGEGDYEEGMYADWWQEPDAKGDEAEAEPEPELA [P3H4] | -0.293 | -0.0349 | 0.153 | 0.25 | 53.2 | 53.6 |
| MHPAGLAAAAAGTPRLRKWPSKRRIPVSQPGMADPHQLFDDTSSAQSRGYGAQRAPGGLSYPAASPTPHAAFLADPVSNMAMAYGSSLAAQGKELVDKNIDRFIPITKLKYYFAVDTMYVGRKLGLLFFPYLHQDWEVQYQQDTPVAPRFDVNAPDLYIPAMAFITYVLVAGLALGTQDRFSPDLLGLQASSALAWLTLEVLAILLSLYLVTVNTDLTTIDLVAFLGYKYVGMIGGVLMGLLFGKIGYYLVLGWCCVAIFVFMIRTLRLKILADAAAEGVPVRGARNQLRMYLTMAVAAAQPMLMYWLTFHLVR [YIF1B] | 0.0319 | -0.373 | -0.959 | -1.51 | 53.5 | 54.8 |
| MAARLVSRCGAVRAAPHSGPLVSWRRWSGASTDTVYDVVVSGGGLVGAAMACALGYDIHFHDKKILLLEAGPKKVLEKLSETYSNRVSSISPGSATLLSSFGAWDHICNMRYRAFRRMQVWDACSEALIMFDKDNLDDMGYIVENDVIMHALTKQLEAVSDRVTVLYRSKAIRYTWPCPFPMADSSPWVHITLGDGSTFQTKLLIGADGHNSGVRQAVGIQNVSWNYDQSAVVATLHLSEATENNVAWQRFLPSGPIALLPLSDTLSSLVWSTSHEHAAELVSMDEEKFVDAVNSAFWSDADHTDFIDTAGAMLQYAVSLLKPTKVSARQLPPSVARVDAKSRVLFPLGLGHAAEYVRPRVALIGDAAHRVHPLAGQGVNMGFGDISSLAHHLSTAAFNGKDLGSVSHLTGYETERQRHNTALLAATDLLKRLYSTSASPLVLLRTWGLQATNAVSPLKEQIMAFASK [COQ6] | -0.0254 | -0.0137 | 1.7 | 2.05 | 54.8 | 55.1 |
| MERKVLALQARKKRTKAKKDKAQRKSETQHRGSAPHSESDLPEQEEEILGSDDDEQEDPNDYCKGGYHLVKIGDLFNGRYHVIRKLGWGHFSTVWLSWDIQGKKFVAMKVVKSAEHYTETALDEIRLLKSVRNSDPNDPNREMVVQLLDDFKISGVNGTHICMVFEVLGHHLLKWIIKSNYQGLPLPCVKKIIQQVLQGLDYLHTKCRIIHTDIKPENILLSVNEQYIRRLAAEATEWQRSGAPPPSGSAVSTAPQPKPADKMSKNKKKKLKKKQKRQAELLEKRMQEIEEMEKESGPGQKRPNKQEESESPVERPLKENPPNKMTQEKLEESSTIGQDQTLMERDTEGGAAEINCNGVIEVINYTQNSNNETLRHKEDLHNANDCDVQNLNQESSFLSSQNGDSSTSQETDSCTPITSEVSDTMVCQSSSTVGQSFSEQHISQLQESIRAEIPCEDEQEQEHNGPLDNKGKSTAGNFLVNPLEPKNAEKLKVKIADLGNACWVHKHFTEDIQTRQYRSLEVLIGSGYNTPADIWSTACMAFELATGDYLFEPHSGEEYTRDEDHIALIIELLGKVPRKLIVAGKYSKEFFTKKGDLKHITKLKPWGLFEVLVEKYEWSQEEAAGFTDFLLPMLELIPEKRATAAECLRHPWLNS [SRPK1] | -0.411 | 0.114 | 0.23 | -0.71 | 51.7 | 51.3 |
